Substitutions are numbered along the chain they refer to. Names may count otherwise. “And” between values parts separate entries of the source, which are not always exact repeats. Equal entries are not always repeated.
B1: wt ALKBH3: wild-type human Fe(II)/2OG-dependent dioxygenase ALKBH3 with N-terminal His-tag, expressed in E. coli (protein, UniProt Q96Q83 1-286, looked up)
Alpha-ketoglutarate-dependent …: MEEKRRRARVQGAWAAPVKSQAIAQPATTAKSHLHQKPGQTWKNKEHHLSDREFVFKEPQQVVRRAPEPRVIDREGVYEISLSPTGVSRVCLYPGFVDVKEADWILEQLCQDVPWKQRTGIREDITYQQPRLTAWYGELPYTYSRITMEPNPHWHPVLRTLKNRIEENTGHTFNSLLCNLYRNEKDSVDWHSDDEPSLGRCPIIASLSFGATRTFEMRKKPPPEENGDYTYVERVKIPLDHGTLLIMEGATQADWQHRVPKEYHSREPRVNLTFRTVYPDPRGAPW
modifications: N-terminal His-tag
notes: wild-type human Fe(II)/2OG-dependent dioxygenase ALKBH3 with N-terminal His-tag, expressed in E. coli
B2: H191A ALKBH3: ALKBH3 mutant, His191 replaced with Ala (protein, UniProt Q96Q83 1-286, looked up, variant H191A)
Alpha-ketoglutarate-dependent …: B1 Alpha-ketoglutarate-dependent … with H191A
B3: Y143F ALKBH3: ALKBH3 mutant, Tyr143 replaced with Phe (protein, UniProt Q96Q83 1-286, looked up, variant Y143F)
Alpha-ketoglutarate-dependent …: B1 Alpha-ketoglutarate-dependent … with Y143F
B4: Y143A ALKBH3: ALKBH3 mutant, Tyr143 replaced with Ala (protein, UniProt Q96Q83 1-286, looked up, variant Y143A)
Alpha-ketoglutarate-dependent …: B1 Alpha-ketoglutarate-dependent … with Y143A
B5: L177A ALKBH3: ALKBH3 mutant, Leu177 replaced with Ala (protein, UniProt Q96Q83 1-286, looked up, variant L177A)
Alpha-ketoglutarate-dependent …: B1 Alpha-ketoglutarate-dependent … with L177A

Key:
[1] = Far-UV CD spectroscopy, secondary structure content (BeStSel); assay type: physicochemical
Method: To assess the effect of key amino acid substitution on the ALKBH3’s secondary structure content circular CD spectra of each protein variant in the apo state were recorded in accordance with experimental conditions optimized in our previous study.
The secondary structure content was determined by processing experimental spectra using the […] (BeStSel, Budapest, Hungary) and CDSSTR (DichroWeb, London, UK) algorithms. […] A detailed description of the parameter optimization process for each algorithm is provided in our recent work. The BeStSel package was selected for further analysis as it provides more information regarding the structural organization of the protein. As follows from data summarized in Table 3, antiparallel β-strands predominate in the structure of the wild-type ALKBH3 (37.6%), with a considerable portion existing in right-twisted and relaxed conformations. The protein sequence also contains a significant number of loop motifs (12.6%) and poorly ordered structures (~44.7%), which may constitute the N-terminal domain. Only 5.2% of the amino acid sequence is composed of α-helices. Utilizing the protein architecture and topology prediction feature available in BeStSel, it was established that the obtained CD spectrum belongs (with a probability of 96%) to the class of β-proteins with a sandwich or β-barrel architecture. Such a distribution corresponds to the structure of ALKBH3 determined by X-ray crystallography for a truncated form of the enzyme lacking 69 amino acids from the N-terminus (PDB 2IUW). Specifically, the β7-β14 strands form two antiparallel sheets of a central “jellyroll” fold, which constitutes the catalytically active DSBH domain (Figure 1). Thus, the CD method we selected enabled us to determine the composition of the secondary structure of ALKBH3 with a high degree of precision.
Far-UV CD spectra from 185 to 280 nm were recorded using a J600 spectrometer (Jasco, Tokyo, Japan) in a 0.1 cm path lengths quartz cuvette (Starna Cells, CA, USA). In all cases, the protein sample (~50 nmol) was dialyzed two times against the CD buffer containing 10 mM of Potassium Phosphate (pH 7.8) and 50 mM of (NH4)2SO4. […] Data were corrected for a baseline by subtraction of the buffer spectrum and expressed as mean residue ellipticity [θ] […] To estimate the secondary structures, each spectrum between […] and 250 nm was analyzed by both the DichroWeb and BeStSel online programs using the CDSSTR method.
Figure 5 Far-UV CD spectra of wt (blue), Y143F (yellow), Y143A (green), L177A (red), and H191A (purple) ALKBH3 collected from 0.2 mg/mL protein at 11 °C in the absence of ligands. Each spectrum was measured three times, corrected for background, averaged, and expressed as mean residue ellipticity θ (deg·cm^2·dmol^−1).

[2] = Thermal denaturation followed by CD spectroscopy; assay type: physicochemical; settings: for Tm: apoprotein 0.2 mg/mL, 10 mM potassium phosphate pH 7.8, 50 mM (NH4)2SO4; for ΔH (enthalpy of unfolding) / ΔS (entropy of unfolding): apoprotein, single-stage model; for ΔG^298: calculated from ΔH and ΔS at 298 K
Method: The effect of substitutions of conserved amino acids in the active site of ALKBH3 on its thermal stability was studied by circular dichroism (CD) spectroscopy combined with thermal denaturation of the samples. The CD data were collected for wt and mutant apoproteins at various temperatures (25–70 °C) with 2–5 °C intervals (Supplementary Figure S3). […] Melting profiles expressed as a temperature dependence of the mean residue ellipticity at 218 nm were largely sigmodal, indicating the presence of a single transition between the folded and unfolded state (Figure 6B).
The melting profiles were analyzed quantitatively using characteristic wavelengths between 208 and 222 nm by a single-stage model.
Thermal stability experiments were performed under the same conditions. The spectra were collected from 25 to 70 °C, with the samples incubated at each temperature for 3–5 min before measuring. After that, each sample was gradually cooled to 25 °C and the spectrum was recorded again to observe possible refolding of the protein. Melting curves were corrected for background, transformed to the mean residue ellipticity units, and smoothed using the Savitzky–Golay method with a polynomial order of 3. Values of [θ] at wavelengths of 208 and 218 nm as a function of temperature were used to determine the thermodynamics of folding. The values of Tm and ΔH were determined by non-linear regression analysis with the help of Equations (6)–(8):(6) θt=θu+θf−θuK/1+K, (7) K=exp(ΔH/1.987·tt/Tm−1)=exp(−ΔH−t·ΔS/1.987·t), (8) ΔG=−RTlnK where θt—the mean residue ellipticity (in deg·cm^2·dmol^−1) at any given temperature t; θu—the mean residue ellipticity of the unfolded protein; θf—the mean residue ellipticity of the folded protein; K—the constant of unfolding; Tm—the melting temperature; ΔH—the enthalpy of unfolding, ΔS—the entropy of unfolding.
Figure 6 Thermal stability of wt and mutant ALKBH3 proteins measured by CD spectroscopy. (A) Spectra of wt ALKBH3 between 180 and 270 nm at 25 °C (light blue), after heating to 70 °C (dark blue), and cooling again to 25 °C (dashed light blue). (B) Representative melting profiles of wt (blue), Y143F (yellow), Y143A (green), L177A (red), and H191A ALKBH3 (violet) derived from the θ values at 218 nm. The unfolding transitions were monitored 0.2 mg/mL of the apoprotein in 10 mM Potassium Phosphate (pH 7.8) and 50 mM (NH4)2SO4.

Molecule	α-helices, total ([1]; sum of Table 3 components)	Tm [2]	Tm ([2]; listed as wt)	ΔH (enthalpy of unfolding) [2]	ΔS (entropy of unfolding) [2]	ΔH (enthalpy of unfolding) ([2]; listed as wt)	ΔG^298 [2]	increase in α-helical content over wt ALKBH3 [1]	increase in ΔH relative to wt [2]	increase in ΔS relative to wt [2]	reduction in melting temperature relative to wt [2]
B1	5.2%	45.5 °C and 45.6 °C	45.6 ± 0.7 °C	176 kJ/mol	133 ± 2 cal/mol·K	180 ± 4.2 kJ/mol	14.2 ± 0.42 kJ/mol				
B2		42.7 ± 0.1 °C		531 ± 38 kJ/mol	403 cal/mol·K and 403 ± 0.4 cal/mol·K		28.9 ± 2.1 kJ/mol	up to 3.1 fold			
B3		43.5 ± 0.4 °C		314 ± 21 kJ/mol	236 ± 3 cal/mol·K		19.7 ± 1.3 kJ/mol		134 kJ/mol	103 cal/mol·K	2.1 °C
B4		44.2 ± 0.2 °C		226 ± 8.4 kJ/mol	170 ± 0.6 cal/mol·K		13.8 ± 0.42 kJ/mol	3 fold			
B5		44.5 ± 0.6 °C		331 ± 21 kJ/mol	249 ± 1.3 cal/mol·K		20.1 ± 1.7 kJ/mol	2.7 fold			1.1 °C
